Holding throughout (test): ELISA; biotinylated BACE020 on plate-coated BACE1 ECD mutant; ratio to WT
On the technique in general: An ELISA detects its analyte on a solid surface through an enzyme-linked reagent.

The target of experiment [1] is T1, human BACE1 ECD (22-457) G74A, His8 (human, UniProt P56817 22-457).
T1 construct: also called G74A (13)
Here is the method:
(§1) Maxisorp microtiter plates (Nalge Nunc International, Rochester, N.Y.) were coated overnight at 4° C. with 2 μg/ml BACE1 mutant in 50 mM carbonate, pH 9.6. The coated wells were washed with buffer (PBS, 0.05% Polysorbate 20) and blocked with assay buffer (PBS, pH 7.4, 0.5% BSA, 0.05% Tween 20, 15 ppm Proclin) for 1 h at room temperature with gentle shaking. […] After washing, the amount of peptide bound to the plate was detected by the addition of Streptavidin-Horseradish Peroxidase Conjugate (GE Healthcare, Piscataway, N.J.) followed by the addition of TMB/H₂O₂ substrate (KPL, Gaithersburg, Md.). The reaction was quenched with 1 M phosphoric acid and the A₄₅₀ measured on a Molecular Devices SpectraMax Plus384 microplate reader. Concentrations to give half maximal effective concentration (EC₅₀) were determined using a 4-parameter non-linear regression curve-fitting program with Kaleidagraph (Synergy Software, Reading, Pa.). […] Concentrations to give half maximal inhibition concentration (IC₅₀) were determined using a 4-parameter non-linear regression curve-fitting program with Kaleidagraph.
(§2) The fold decrease in binding affinity was determined as the relative EC₅₀ values of EC₅₀ (mut)/EC₅₀ (WT), which are listed in Table 3.

Experiment [2] addresses human BACE1 ECD (22-457) R189A, His8 (human, UniProt P56817 22-457). Here is the method: as §1, §2
The target of experiment [3] is T2, human BACE1 ECD (22-457) T133A, His8 (human, UniProt P56817 22-457).
T2 construct: also called T133A (72)
T2 sequence (P56817 other isoform, or with tags, fused parts or gaps T133A T133A): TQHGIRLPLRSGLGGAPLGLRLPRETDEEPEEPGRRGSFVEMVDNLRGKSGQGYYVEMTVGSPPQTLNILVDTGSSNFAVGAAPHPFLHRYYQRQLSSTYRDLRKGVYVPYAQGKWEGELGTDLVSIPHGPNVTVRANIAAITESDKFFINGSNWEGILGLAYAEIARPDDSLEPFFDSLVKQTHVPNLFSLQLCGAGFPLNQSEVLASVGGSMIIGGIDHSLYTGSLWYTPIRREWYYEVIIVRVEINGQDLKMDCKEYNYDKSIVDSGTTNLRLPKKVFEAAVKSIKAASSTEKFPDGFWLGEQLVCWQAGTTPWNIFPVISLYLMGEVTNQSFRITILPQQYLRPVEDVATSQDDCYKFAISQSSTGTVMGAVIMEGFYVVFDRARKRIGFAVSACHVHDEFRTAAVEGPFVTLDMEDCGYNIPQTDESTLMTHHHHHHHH
Here is the method:
as §1, §2

Experiment [4] has as its target T3, human BACE1 ECD (22-457) N294A, His8 (human, UniProt P56817 22-457).
T3 construct: also called N294A (233)
How it is done: as §1, §2

Experiment [5] addresses T4, human BACE1 ECD (22-457) G72A, His8 (human, UniProt P56817 22-457).
T4 construct: also called G72A (11)
Here is the method: as §1, §2

Experiment [6] deals with T5, human BACE1 ECD (22-457) F169A, His8 (human, UniProt P56817 22-457).
T5 construct: also called F169A (108)
T5 sequence (P56817 other isoform, or with tags, fused parts or gaps F169A F169A): as the sequence (P56817 other isoform, or with tags, fused parts or gaps T133A T133A) above, with A112T, F148A counted along it
How it is done: as §1, §2

Experiment [7] addresses T6, human BACE1 ECD (22-457) R296A, His8 (human, UniProt P56817 22-457).
T6 construct: also called R296A (235)
Here is the method: as §1, §2

The source of these data is patent US20140228277A1 (Genentech, published 2014).

Starred links: 1 amine or outer side, 2 acyl side, 3 side chain; linkers in the order of their positions; H or OH if unused. Positions of bridges follow the written chain, without caps; N, C: chain ends. NH(CH2)3(OCH2CH2)2O(CH2)3NH = C(CN[*:1])COCCOCCOCCCN[*:2]

T4 sequence (P56817 other isoform, or with tags, fused parts or gaps G72A G72A): as the sequence (P56817 other isoform, or with tags, fused parts or gaps T133A T133A) above, with G51A, A112T counted along it
T1 sequence (P56817 other isoform, or with tags, fused parts or gaps G74A G74A): as the sequence (P56817 other isoform, or with tags, fused parts or gaps T133A T133A) above, with G53A, A112T counted along it
T6 sequence (P56817 other isoform, or with tags, fused parts or gaps R296A R296A): as the sequence (P56817 other isoform, or with tags, fused parts or gaps T133A T133A) above, with A112T, R275A counted along it
Chain of human BACE1 ECD (22-457) R189A, His8 (P56817 other isoform, or with tags, fused parts or gaps R189A R189A): as the sequence (P56817 other isoform, or with tags, fused parts or gaps T133A T133A) above, with A112T, R168A counted along it
T3 sequence (P56817 other isoform, or with tags, fused parts or gaps N294A N294A): as the sequence (P56817 other isoform, or with tags, fused parts or gaps T133A T133A) above, with A112T, N273A counted along it

B1: biotinylated BACE020 (Ac-NEESMYCRLLGIGCG-(PEG)3-biotin) (peptide)
peptide: Ac-NEESMYCRLLGIGCG-{NH(CH2)3(OCH2CH2)2O(CH2)3NH-biotin}
modifications: disulfide 7-14
notes: also called C-terminal biotin tagged BACE020 peptide
With B1, the “Fold Decrease in Binding EC50 (Mut)/EC50 (WT)” value came out at 488 fold in experiment [1]; 2.7 fold in experiment [2]; 1.1 fold in experiment [3]; 2.4 fold in experiment [4]; 6.5 fold in experiment [5]; 1.9 fold in experiment [6]. For the same molecule, the “Fold Decrease in Binding EC50 (Mut)/EC50 (WT)” value in experiment [7] was 70.9 fold.
